Test results taken from US20030166143A1 (CADUS TECHNOLOGIES, published 2003).

T1: human formyl peptide receptor like-1 (FPRL-1) receptor (human, UniProt P25090 1-351)
T1 sequence (looked up): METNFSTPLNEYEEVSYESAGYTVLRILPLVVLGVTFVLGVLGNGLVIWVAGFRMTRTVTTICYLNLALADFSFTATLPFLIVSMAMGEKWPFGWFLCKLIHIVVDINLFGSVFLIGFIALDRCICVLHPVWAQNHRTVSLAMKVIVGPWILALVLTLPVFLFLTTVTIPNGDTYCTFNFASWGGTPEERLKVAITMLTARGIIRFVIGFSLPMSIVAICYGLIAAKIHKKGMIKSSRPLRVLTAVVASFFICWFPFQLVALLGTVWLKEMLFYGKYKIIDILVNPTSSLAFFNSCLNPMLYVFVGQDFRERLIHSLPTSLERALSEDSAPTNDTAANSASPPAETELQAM


Key:
[1] = biological target: C5a receptor (human) (UniProt P21730); assay: cell-based or functional assay
Sequence of C5a receptor (human) (P21730 whole entry): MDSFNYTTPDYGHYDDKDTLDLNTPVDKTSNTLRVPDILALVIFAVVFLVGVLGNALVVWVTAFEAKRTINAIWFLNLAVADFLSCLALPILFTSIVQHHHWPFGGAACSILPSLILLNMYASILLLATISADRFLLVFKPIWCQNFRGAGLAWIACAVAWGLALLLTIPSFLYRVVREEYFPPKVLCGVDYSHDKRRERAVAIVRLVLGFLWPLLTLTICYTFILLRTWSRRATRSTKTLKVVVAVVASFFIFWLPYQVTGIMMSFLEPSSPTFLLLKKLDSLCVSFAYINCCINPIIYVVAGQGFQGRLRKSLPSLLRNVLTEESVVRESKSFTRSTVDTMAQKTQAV

[2] = biological target: T1, human formyl peptide receptor like-1 …; assay: cell-based or functional assay

| Molecule | fold increase in lacZ expression (fus1:lacZ, autocrine yeast) [1] [fold] | fold stimulation of β-galactosidase (fus1-lacZ) over background [2] [fold] |
| --- | --- | --- |
| native C5a ligand (from UniProt P01031 678-751) | 8 to 12 | – |
| SLLWLTCRPWEAM [peptide A5, Ser-Leu-Leu-Trp-Leu-Thr-Cys-Arg-Pro-Trp-Glu-Ala-Met] | – | 8 |
